Test results reported in the RNAGym collection of RNA variant scans (doi:10.7554/elife.90254).

B1: LINE1-mini (parent)
chain: GGCAGAGCUCAACACAGCGUGGCAAAGUGGCUGUGGCUAGACUGCC

Variants of: B1
Assay: self-cleavage, relative activity (ratio to wild type); higher = more cleavage; in vitro, sequencing; the parent is a self-cleaving ribozyme

Variant | self-cleavage
GGCAGAGCUCAACACAGCGUGUCAAAGUGGCUGUGGCUCGACUGCC [G22U A39C] | 0.14
GGCAGAGCUCAACACAGCGUGUCAAAGUGGCUGUGGCUUGACUGCC [G22U A39U] | 1
GGCAGAGCUCAACACAGCGUGGAAAAGUGGGUGUGGCUAGACUGCC [C23A C31G] | 0.08
GGCAGAGCUCAACACAGCGUGGAAAAGUGGAUGUGGCUAGACUGCC [C23A C31A] | 0.26
GGCAGAGCUCAACACAGCGUGGAAAAGUGGUUGUGGCUAGACUGCC [C23A C31U] | 0.45
GGCAGAGCUCAACACAGCGUGGAAAAGUGGCUGUGGCUAGACUGCA [C23A C46A] | 0.98
GGCAGAGCUCAACACAGCGUGGAAAAGUGGCUGUGGCUAGACUGCU [C23A C46U] | 1.1
GGCAGAGCUCAACACAGCGUGGAAAAGUGGCUGUGGCUAGACUGCG [C23A C46G] | 1.53
GGCAGAGCUCAACACAGCGUGCCAAAGUGGCUGGGGCUAGACUGCC [G22C U34G] | 0.17
GGCAGAGCUCAACACAGCGUGUCAAAGUGCCUGUGGCUAGACUGCC [G22U G30C] | 2.28
GGCAGAGCUCAACACAGCGUGUCAAAGUGACUGUGGCUAGACUGCC [G22U G30A] | 1.49
GGCAGAGCUCAACACAGCGUGUCAAAGUGUCUGUGGCUAGACUGCC [G22U G30U] | 1.03
GGCAGAGCUCAACACAGCGUGUCAAAGUGGCUGGGGCUAGACUGCC [G22U U34G] | 0.26
GGCAGAGCUCAACACAGCGUGUCAAAGUGGCUGCGGCUAGACUGCC [G22U U34C] | 0.44
GGCAGAGCUCAACACAGCGUGUCAAAGUGGCUGAGGCUAGACUGCC [G22U U34A] | 0.19
GGCAGAGCUCAACACAGCGUGGAAAAGUGGCUGUGGCUAGAUUGCC [C23A C42U] | 0.52
GGCAGAGCUCAACACAGCGUGGAAAAGUGGCUGUGGCUAGAGUGCC [C23A C42G] | 0.06
GGCAGAGCUCAACACAGCGUGGAAAAGUGGCUGUGGCUAGAAUGCC [C23A C42A] | 0.3
GGCAGAGCUCAACACAGCGUGGAAAAAUGGCUGUGGCUAGACUGCC [C23A G27A] | 0.92

Variant | self-cleavage
GGCAGAGCUCAACACAGCGUGUCAAAGUGGCUGUGGAUAGACUGCC [G22U C37A] | 0.06
GGCAGAGCUCAACACAGCGUGUCAAAGUGGCUGUGGUUAGACUGCC [G22U C37U] | 0.05
GGCAGAGCUCAACACAGCGUGUCAAAGUGGCUGUGGGUAGACUGCC [G22U C37G] | 0.03
GGCAGAGCUCAACACAGCGUGCCAAAGUGGCUGUGGCUAGACGGCC [G22C U43G] | 0.06
GGCAGAGCUCAACACAGCGUGCCAAAGUGGCUGUGGCUAGACCGCC [G22C U43C] | 0.06
GGCAGAGCUCAACACAGCGUGCCAAAGUGGCUGUGGCUAGACAGCC [G22C U43A] | 0.12
GGCAGAGCUCAACACAGCGUGGAAAAGUGGCUGUGGCUAGACUGCC [C23A] | 1.01
GGCAGAGCUCAACACAGCGUGGAAGAGUGGCUGUGGCUAGACUGCC [C23A A25G] | 0.49
GGCAGAGCUCAACACAGCGUGGAACAGUGGCUGUGGCUAGACUGCC [C23A A25C] | 0.61
GGCAGAGCUCAACACAGCGUGGAAUAGUGGCUGUGGCUAGACUGCC [C23A A25U] | 0.78
GGCAGAGCUCAACACAGCGUGUCAAAGUGGCUGUGGCUAGACUACC [G22U G44A] | 0.85
GGCAGAGCUCAACACAGCGUGUCAAAGUGGCUGUGGCUAGACUUCC [G22U G44U] | 0.27
GGCAGAGCUCAACACAGCGUGUCAAAGUGGCUGUGGCUAGACUCCC [G22U G44C] | 0.34
GGCAGAGCUCAACACAGCGUGUCAAAGUGGCUGUGGCUAGGCUGCC [G22U A41G] | 0.37
GGCAGAGCUCAACACAGCGUGUCAAAGUGGCUGUGGCUAGUCUGCC [G22U A41U] | 0.72
GGCAGAGCUCAACACAGCGUGUCAAAGUGGCUGUGGCUAGCCUGCC [G22U A41C] | 0.04
GGCAGAGCUCAACACAGCGUGUCAAAGGGGCUGUGGCUAGACUGCC [G22U U28G] | 0.83
GGCAGAGCUCAACACAGCGUGUCAAAGCGGCUGUGGCUAGACUGCC [G22U U28C] | 0.42
GGCAGAGCUCAACACAGCGUGUCAAAGAGGCUGUGGCUAGACUGCC [G22U U28A] | 0.58

Variant | self-cleavage
GGCAGAGCUCAACACAGCGUGUCAAAGUGGCUGUGGCUAAACUGCC [G22U G40A] | 0.2
GGCAGAGCUCAACACAGCGUGUCAAAGUGGCUGUGGCUACACUGCC [G22U G40C] | 0.18
GGCAGAGCUCAACACAGCGUGUCAAAGUGGCUGUGGCUAUACUGCC [G22U G40U] | 0.15
GGCAGAGCUCAACACAGCGUGGAAAAGUGGCUGUGGCUAGCCUGCC [C23A A41C] | 0.05
GGCAGAGCUCAACACAGCGUGGAAAAGUGGCUGUGGCUAGGCUGCC [C23A A41G] | 0.43
GGCAGAGCUCAACACAGCGUGGAAAAGUGGCUGUGGCUAGUCUGCC [C23A A41U] | 0.84
GGCAGAGCUCAACACAGCGUGUCAAAGUGGCUGUGUCUAGACUGCC [G22U G36U] | 0.06
GGCAGAGCUCAACACAGCGUGUCAAAGUGGCUGUGCCUAGACUGCC [G22U G36C] | 0.1
GGCAGAGCUCAACACAGCGUGUCAAAGUGGCUGUGACUAGACUGCC [G22U G36A] | 0.15
GGCAGAGCUCAACACAGCGUGUCAAAGUUGCUGUGGCUAGACUGCC [G22U G29U] | 0.72
GGCAGAGCUCAACACAGCGUGUCAAAGUCGCUGUGGCUAGACUGCC [G22U G29C] | 0.84
GGCAGAGCUCAACACAGCGUGUCAAAGUAGCUGUGGCUAGACUGCC [G22U G29A] | 1.67
GGCAGAGCUCAACACAGCGUGUCACAGUGGCUGUGGCUAGACUGCC [G22U A25C] | 0.65
GGCAGAGCUCAACACAGCGUGUCAGAGUGGCUGUGGCUAGACUGCC [G22U A25G] | 1.01
GGCAGAGCUCAACACAGCGUGUCAUAGUGGCUGUGGCUAGACUGCC [G22U A25U] | 1.49
GGCAGAGCUCAACACAGCGUGUCAAAUUGGCUGUGGCUAGACUGCC [G22U G27U] | 1.46
GGCAGAGCUCAACACAGCGUGUCAAAAUGGCUGUGGCUAGACUGCC [G22U G27A] | 1.04
GGCAGAGCUCAACACAGCGUGUCAAACUGGCUGUGGCUAGACUGCC [G22U G27C] | 0.57
